Source: publication PMC6635525

Target: TNF receptor-associated factor 2 (TRAF2) (human (endogenous in HEK293)) (UniProt Q12933)
UniProt Q12933, sequence (Q12933 whole entry): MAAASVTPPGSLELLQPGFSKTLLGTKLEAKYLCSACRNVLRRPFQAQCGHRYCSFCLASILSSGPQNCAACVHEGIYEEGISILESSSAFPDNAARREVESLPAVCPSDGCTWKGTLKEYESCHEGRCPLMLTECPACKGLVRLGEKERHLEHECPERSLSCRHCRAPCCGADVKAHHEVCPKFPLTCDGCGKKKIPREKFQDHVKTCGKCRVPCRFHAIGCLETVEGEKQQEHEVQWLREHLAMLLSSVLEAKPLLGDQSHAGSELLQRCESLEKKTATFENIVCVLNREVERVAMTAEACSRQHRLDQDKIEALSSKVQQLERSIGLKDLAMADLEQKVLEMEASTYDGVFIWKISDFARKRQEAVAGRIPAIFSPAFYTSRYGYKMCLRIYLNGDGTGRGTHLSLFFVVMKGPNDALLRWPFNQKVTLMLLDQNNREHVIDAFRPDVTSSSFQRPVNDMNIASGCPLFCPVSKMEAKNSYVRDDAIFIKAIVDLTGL

Compared with “GRA15II-51-550 with the deletion SQQE430-433, fused to GFP (from UniProt A0A125YGQ9 51-550) (domain or fragment)”, “GRA15II-51-550 with the deletions AAEE160-163/SQQE430-433, fused to GFP (from UniProt A0A125YGQ9 51-550) (domain or fragment)” is higher in NF-κB luciferase reporter activity in transiently transfected HEK293 reporter cells, decrease compared to full-length GRA15II-51–550: 60% for the first, 75% for the second.

Work on “GRA15II-51-550 with the deletion AAEE160-163, fused to GFP (from UniProt A0A125YGQ9 51-550) (domain or fragment)” yielded an NF-κB luciferase reporter activity in transiently transfected HEK293 reporter cells, decrease compared to full-length GRA15II-51–550 of 60%.
